The data set can be described thus: label from the status in PepcDB records.
Regarding “MGIRNSKTFTSTDIATYYDVSEDHYMYFWDLNQSHSLHYGYWDASTKTFREALANINRVLAEKASITAGTRVLDAGCGVGGSSIWLAKNKQANVTGITVSKKQAARANTSAAAVNPGGTAVFDVQDYTNTPYHSESFDVVWAIESVCHAANKEDFIKEAYRLLKPGGQLIMADFFIVKDGNADDQRSIDAWGHGWAVPFFEKKDAFQHMLLKAGFNTADMIDSTEHIRRSAKRLYYAFFPGWIISKLYNLVNRRTTEFSKNNVYTAYYQYKTLKKELWKYYIVHAKK”, the protein production result was “failed”.

With “MNARLENLMQWLKEKNVEAAFLTSTPNVFYMTNIHCEPHERLLGMFVFQEKEPILICPKMEEGQARNAGWAHEIIGFTDTDRPWDMIAKAIKDRGINANAVAIEKEHLNVERYEELTKLFPNAAFTSAEEKVRELRLIKDEKELSILREAAKMADYAVEVGVNAIKEDRSELEVLAIIEHELKTEGIHKMSFDTMVLAGANSALPHGIPGANKMKRGDFVLFDLGVIIDGYCSDITRTVAFGDISEEQTRIYNTVLAGQLQAVEACKPGVTLGAIDNAARSVIADAGYGDFFPHRLGHGLGISVHEYPDVKAGNESPLKEGMVFTIEPGIYVPNVGGVRIEDDIYITKDGSEILTKFPKELQFVK”, the protein production result is “failed”. Then “MAIKSISSSLLTRVLSVYFLLTLIVTAIQIGAEYFDTKRVLIAELQNQQSTFNGSLTRSLWEFNSNQIDTIADGLISIPAIAGVLIRDDAGNILVQLGETTEMSDLPDDNSEGALLPERNGIFGYYDSLIFEFSGHSTKVGDVSLFSTRDIAIDRIKVSLGFIIGNAIIKSIFLIVLFTIAFNRMLNRPLSDLTQQIKGFRLDNLERSRIRLDDQHNNELVLVEQAYNQLLDNIEEYQSDLDRTQKKLKAANRQLDEQNAILEQEVARKTSSLSQVMLDLEQRKNELEMRQEKLEREVGQRRAIENTLRQSNQRLESSLNNLRETQQQLIESEKMASLGGLVAGITHDVNTPIGISVTASSYLREKLDTLDQSLLNKELTQTQLKKFIEEGRESLNLLDSNLHRASDLISSFKQVAVDQASDAIRDINLKSYIEDLVQSLQPHLKKTNHQVRLECADDIFIRCPAGALSQIFTNLILNSLRHAFDGISEGLMIISIRLDGETLQVHYSDNGNGLSEAQLKRLFDPFFTTKRDQGGSGLGTHIVRNLVTQTLSGEISAESEPGKGLSYFFSFSVQVLN”, with “failed”.

For “MSLSELSPCHVRSGRIMTVDGPIPSSALGHTLMHEHLQNDCRCWWNPPQEPERQYLAEAPISIEILSELRQDPFVNKHNIALDDLDLAIAEVKQFAAVGGRSIVDPTCRGIGRDPVKLRRISAETGVQVVMGAGYYLASSMPETAARLSADDIADEIVAEALEGTDGTDARIGLIGEIGVSSDFTAEEEKSLRGAARAQVRTGLPLMVHLPGWFRLAHRVLDLVEEEGADLRHTVLCHMNPSHMDPVYQATLAQRGAFLEFDMIGMDFFYADQGVQCPSDDEVARAILGLADHGYLDRILLSHDVFVKMMLTRYGGNGYAFVTKHFLPRLRRHGLDDAALETLMVTNPRRVFDASIEGHHHHHH”, the protein production result was “not failed”. Then “MKKLFMSAVALLFAGALWAQENPLWMRHCAISPDGTTIAFTYKGDIFTVPVSGGKATQITTNPAFDTTPIWSPDSKQIAFASDRMGSMDVFIVSKDGGEPRRLTTFSGGETPVAFTDAGHILFTADIMPSTEDAGFPSNGQFQQIYQIPVSGGRPVMFSSMPMECISINKEGTILYQDKKGYEDYWRKHQKSPIARDIWMLRPGQTPRYEKQTTFIGEDREPVWAPDGKSFYYLSEENGTFNVYQRTPGSDTSKQVTHHKQHPVRFLSMASNGNLCYGFDGEIYTLAPGGKPQKVSVKILSDRNDKDLIRQIKTSGATEMAVSPDGKEVAFILRGDVYVTSVEYKTTKQVTNTPCQERGIDFAPDGRTLVYASERGGLWQLYTSTIVRKDEKQFTYATELKEERLTNSDIASFNPKYSPDGKEIAFLENRTAIRVINLKTKKVRTVMDAQYQYSYSDGDQWFEWSPDSKWILSEFIGIGGWNNKDIVLLNADGKGEMHNLTESGYSDGNAKWVLGGKAMVWFSDRAGYRSHGSWGAQYDAYIMFFDVDAYDRFRMNKEDLALLEEAEKAEKAEKEKAEKKKKENKKDDKKKDAKEKNKKDGDEEKKEEVKPLKFDLDNRFDRIVRLTVNSSFMGDAVLTPKGDKLYYLAAFESGYDLWEHDLKENSTKILLKGVGGGSLLPDKKGENIFMCTGGGMKKIEIAGSKTTPIAFESFFDYQPGGERAYIFDHVWQQVDDKFYVKDLQGVDWPLYKKSYEKFLPYINNNYDFAELLSEMLGELNASHTGARYSGAGGALATAALGVFYDDTYNGDGLKIKEIIEQGPFTLKKTDVKPGCIIEKVDGTLIKKGEDYFPLFEGKVGRKVLLSVYDPATKKRFEETVKAISYGAQRELLYKRWVERNRKKVEELSGGRLGYVHIKGMDSQSFRKMYSELLGRYRNKEAVVVDVRHNGGGWLHDDVVTLLSGKEYQRFVPRGQYIGSDPFNKWLKPSCMLVCEDNYSNAHGTPYVYKTLGIGKLVGTPVAGTMTAVWWERQIDPSLVFGIPQVGCMDMQGNYLENHTLEPDVLIYNEPAASLKGEDAQLKAAVDCLLKELPKK”, with “failed”. Then “MRPHRAFSPGLTGVLPLRETRHLVEVLRARVGDRFTVFDGEREALAEVVDLGPPLRYRVLEERRPEREVGVEVVLYVALLKGDKLAEVVRAATELGATRIQPLVTRHSVPKEMGEGKLRRLRAVALEAAKQSGRVVVPEVLPPIPLKAVPQVAQGLVAHVGATARVREVLDPEKPLALAVGPEGGFAEEEVALLEARGFTPVSLGRRILRAETAALALLALCTAGEGR”, with “not failed”; and “MRIAILGGGVAGSTLAYLLSRINYEVTIFDINQHYVKPCGDIVPNIYTPPFNWKETFGIRRFSFYIDGEKIYDVEYRHTKWLVIDKWKWINDMRKSSKVIVTHDNNAKEFDYVIDSRGPYPMDREVVYTTRAIIETEEFDDEAILEFNTRYTGFYWIFPSKENEYNIGAGFLEYKNSKELLNYYLRKRFKNFEVKDIRGAPISIGSVKNKKLRIGEARGLVFPLSGEGIRPSAISAEYAFEAIHKEKDLDGFLNEKLSIIEKRIKIQKMLLDLYRYSSLNLRKTFMRIFFKNEVLIDTYLEDKMDLNGIIESLKSVRANGGIIRKFEEQERLEHHHHHH”, with “failed”.

Turning to “MLLAMALLIIGLLLVAYGADRLVFAASILCRTFGIPPLIIGMTVVSIGTSLPEIIVSAAASLHGQLDLAVGAALGSNITNILLILGLAALVRPFTVHSDVLRRELPLMLFVSVVAGSVLHDGQLSRSDGIFLLLLAVLWLLFIVKIARLAERQGNDSLTREQLAELPREGGLPVAFLWLGIALVIMPMATRMVIDNATVLANYFAMSELTLGLTVIAVGTSLPELATAIAGVRKGENDIAVGNLIGANIFNLAIVLGLPALIAPGEINPLAFGRDYSVMLLVSVVFALLCWRHPRQIGRGAGILLTGGFIVWLAMLYWLSPLLVG”, the protein production entry is “failed”. Turning to “MSLGRFVRHALITAGTKGLGKQVTEKLLAKGYSVTVTYHSDTTAMETMKETYKDVEERLQFVQADVTKKEDLHKIVEEAMSHFGKIDFLINNAGPYVFERKKLVDYEEDEWNEMIQGNLTAVFHLLKLVVPVMRKQNFGRIINYGFQGADSAPGWIYRSAFAAAKVGLVSLTKTVAYEEAEYGITANMVCPGDIIGEMKEATIQEARQLKEHNTPIGRSGTGEDIARTISFLCEDDSDMITGTIIEVTGAVDVIHREGHHHHHH”, the protein production result was “not failed”. For the sequence “MIQMSSNDSSEVIRQCLQVLESITSDSSVPRNIRRSVNEIMDILNNESEPLFLRAASSISILEDISNDPNLPLHTRTLIWNLSSQLETIPVDE”, the protein production result is “failed”. Regarding “WTCNKFRCGEKRLTRSLCACSDDCKDQGDCCINYSSVCQGEKS”, the protein production result was “not failed”.

On to “MFSLRSALILALLIIASLVNTKYSLPLALLVVGLTYLLDEQRLLPYASIVSFLIPMVYPLETSYVPMIYALSSIGILASKYSRLLSSVLIILGVSILPLGDVQKYLILYLTAFLLLGVDIRGTLGGGIIMLILATQGYVPYDLAFYTILFGVLSLTTLYKIKVTRYHAIAILSAIFPLLYSYFPLPSFLVSLGSALVFPPALFSTSILLYVEGFKQGIYGLLLILLSLVYNRYEKYFRTISMVLVSAGLSIFSSVFPPLILILIVIYFLEKGKVLTYSQYFLIPLSLYLLIQGSYQSLVYSSIALIIVSTLRMILRTTDSNRFKKLVKLMNARIVGGIISLLIEIILFFIALQYLVFPLSYVALTLSVIYAVFIFRERNAFVHFSLSAVLALFFNPVFALGGIKLKDSLNVIVVALTIIMGILFSHTLYFSIISVFLSVSYLLQKFDIHDLVPLSVISIVSIIPGITWTYVLPPILLSFSYLITKKYSYELGLSSMFCIIILIHYLIV”, for which the protein production result is given as “failed”. As for “MCNAKDIYTAGWALVVMAGLVSLAIQVYLGYFRLDDMVKHLSRCRVIAIRMPLLGKDPLSRFFMLLCIGALFAMPHLFLRNGGLNVKDYRKFPLGLKWLINLFQFAALVAVIAFLVLWWVSRHL”, the entry is “failed”; as for “MKPRRKSALLWGAVAALSFLVLHQGYLLAGGAFLGVGPVAAVTVAVFVGGAAVSYYAEGRFGLFGWRR”, “failed”. As for “MLVAPFASQLPFVEETLHSSYQALQWGKNIFAIAHKTLSARLLNTVFPTEERTQPLSPELQAWLKERYEALLQQDWQDAAAGFYPATLLFDAPWEEFLRFYPLLLLDLPQMWQRARSRQFQEFAHNVRLEDYPQYYRQNFHYQTDGYLSDTSANLYDIQVELLFGGTADAMRRRVIAPIAQQVVAHPPTPPLRILDVACGTGRTLKQLRYAFPGAVLFGLDLSPAYLRKANALLATQTGALPQLIQGNAESLPYVDSYFSAITCVFLFHELPAPVRQNVIHECARVLQPGGIFVICDSIQSLDSPEQRPMMENFANLFHEPFYRNYIEDDLNLRLEKAGLVVKEVQHHFMSKYWVAVKPSLEHHHHHH”, the entry is “failed”; as for “MVAVTYSPGPHLERFLASLSLATERPVSVLLADNGSTDGTPQAAVQRYPNVRLLPTGANLGYGTAVNRTIAQLGEMAGDAGEPWVDDWVIVANPDVQWGPGSIDALLDAASRWPRAGALGPLIRDPDGSVYPSARQMPSLIRGGMHAVLGPFWPRNPWTTAYRQERLEPSERPVGWLSGSCLLVRRSAFGQVGGFDERYFMYMEDVDLGDRLGKAGWLSVYVPSAEVLHHKAHSTGRDPASHLAAHHKSTYIFLADRHSGWWRAPLRWTLRGSLALRSHLMVRRSRRRKLKLVEGRH”, “failed”; as for “LEEALGILDTQRVEIAKRRHLNAVLRHIPAGVAAVDNQGVVQSLNPALAQLLDLPVSAALGRPLQQLCPELDLQQALQEGTGEENRVMRLGSHAVVSNLLPILENGERTGLVLTCQDITVVQRADQRIR”, “failed”.

With “DEGYWDCSVCTFRNSAEAFKCMMCDVRKGTSTRKPRPVSQ”, the protein production result is recorded as “not failed”.

Consider “STISILATSDIHGNVLNYDYATGKAPTNTQGLAKVSSYVNSVRASKPNVMLIDDGDTIQGTPLSYYYDKIDTTSEYPLMKIMGAMKYDTWTLGNHEFNYGLPTLNRVISDARKENINVLSANTYNSDNTNFVNPYYIKTFNINGKTVNVGILGLTTKCIPDWEDPSHYAGLHFNDLVDEAKLWVPRMKAAGANVVIVAAHSGEEGAADTIPENQIKAIATNVSGIDAIVAGHAHVTVNDTSLKNPNGKTVPVVEPNKWGTFVSQIDITLDNSGNASTINTQNVKMTDSIPEDPNIVNIIQPYQNKTLDYIST”, for which the protein production entry is on record as “failed”. As for “MPKERVDVLAYKQGLFNTREQAKRGVMAGLVVNVINGERYDKPGEKIDEATELKLKGDKLKYVSRGGLKLEKALKVFVISVDGQITLDIGASTGGFTDVMLQNGAQLVYAVDVGTNQLVWKLRQDERVCSMEQYNFRYAEPSDFERGQPTFASIDVSFISLNLILPALSKILTDGGQVVALIKPQFEAGREQIGKHGIVKDKSVHETVLETVTTFATNYGFTVKELDFSPIQGGHGNIEFLAYLEKSAQAQNQVLTKIKSIVEQAHKEFKKNEET”, the protein production entry is “not failed”.

The record behind these values is a protein production outcome set (Wang et al. 2014).
